The source of these data is the RNAGym collection of RNA variant scans (doi:10.1073/pnas.2313332121).

B1: TPR t1 (parent)
chain: GACCAAUCUGCCCUCAGAGCUCGAGAACAUCUUCGGAUGCAGAGGAGGCAGGCUUCGGUGGCGCGAUAGCGCCAACGUCCUCAACCUCCAAUGCAUCCCACCACAUGAUGAUGCCUGAAGAGCCUUGGUUUUUUG

The variants in the data set derive from B1. Nature of the data set: polymerase ribozyme fitness, log enrichment relative to wild type (log ratio); higher = more active; in vitro selection for triplet polymerase activity. The procedure, abridged: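 One round of in vitro selection, in triplicate, was applied to PCR-built, transcribed mutant libraries of each subunit of a heterodimeric triplet polymerase ribozyme. The steps were annealing with a biotinylated primer, partner subunit and triplets, incubation frozen at −7 °C, gel excision of extended constructs, streptavidin-bead capture and RT-PCR. Fitness is the logarithm, base 2, of genotype enrichment over wild-type enrichment from inverse-variance-weighted replicate averages of Illumina-sequenced inputs and outputs, keeping genotypes with ≥10 input reads and ≥1 read per output.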
For C4U U7G A27U A119G, the “polymerase ribozyme fitness (log ratio)” value was -1.81. For C4U C11A C76U C82G G110U the value was -5.02; for C4G A46U G47A, -4.4. For C4U C73G A118G, the “polymerase ribozyme fitness (log ratio)” value was -1.58. For C4G A50U C72G the value was -3.42; for C4U U32A G47A U112G, -5.29.

As for C4U U7A G69A, the “polymerase ribozyme fitness (log ratio)” value was -2.49. Take C4U C15U A18G G113A: the “polymerase ribozyme fitness (log ratio)” value was -3.08. The figure for C4U U14C G60A A75U is -3.07; for C4U C53U G69A U78A C86U it is -3.99; for A5C C12U C73A C99U it is -4.28.

For the variant A5C C82U A84G U112A, the “polymerase ribozyme fitness (log ratio)” value was -1.06.

For the variant C4G G61A U78A A83G C124U U125G, the “polymerase ribozyme fitness (log ratio)” value was -1.07. For C4U G113A the value was -1.15; for A5C C73A C123G, 1.28. As for A5C C15A C64U U81C C88U, the “polymerase ribozyme fitness (log ratio)” value is -3.57. For C4U G69C C97U G122A the value was -2.49. The figure for A5C A29G C49G C70A U92C G117U is -7.38; for C4U G10A U21A G44A A83U it is -1.59; for C4G U78C U112G it is -1.83. The figure for C4G G71U C115U is -3.28.

As for A5C A50U G69A U81A A121C, the “polymerase ribozyme fitness (log ratio)” value was -1.62. For A5C G77A the value was -0.654; for A5C C15U G60C U96A, -2.98. For C4U C20A A111U the value was -2.94; for C4U C20A A111G, -4.75; for A5C G17A G127U, -4.89. The figure for C4U G48U G52U C73U A90U C124G is -2.07; for C4G A6U C72G A84C C115A it is -5.17. On to C4G G44U U78G U96G U106C, for which the “polymerase ribozyme fitness (log ratio)” value was -4.97. The figure for C4U G51A G61U C82G C88U G93C is -5.15.

Regarding C4U C15G C28U A121G, the “polymerase ribozyme fitness (log ratio)” value was -2.9. The figure for C4U A5C G57C A68U C73U C115U C124U is -6.74; for A5C G69C it is -1.74. For A5C G69A the value was -3.11; for A5C G17U A50C C88A, -4.51. For C4U C70U C85G C86U the value was -2.03; for C4U C64A C124U, -5.08. With C4G C73A, the “polymerase ribozyme fitness (log ratio)” value is -1.43.

Take C4U G60U U92A U96C: the “polymerase ribozyme fitness (log ratio)” value was -3.48. For A5C G71C C89U G117U U131C the value was -5.27; for C4U A26G C28U C40A C64A C123U, -6.51; for C4U C11A G44C C82G A121C G127A, -0.143. The figure for C4U G48A G71U U106A is -1.2; for C4U A27U it is -2.79; for C4G A121C it is 0.946.

A5C G58A C89A C94G C101U: the “polymerase ribozyme fitness (log ratio)” value was -5.27. The figure for C4G A27U G36C C49G C79U C123G is -5.37.

Consider C4U C72U G117C, for which the “polymerase ribozyme fitness (log ratio)” value was -4.14. The figure for C4U G48A G52A U92A is -5.54. The figure for C4U G47A C56U C70A C101U A119G G120U G127A is -3.88. C4G C8U A18U A43U U81A: the “polymerase ribozyme fitness (log ratio)” value was -2.85. As for A5C C12A G61U G113C, the “polymerase ribozyme fitness (log ratio)” value is -2.74. For C4G C13G C49A G60A C62U the value was -4.62; for A5C C11G U87G C89A G120C, -0.971. The figure for A5C G69U A90U is -0.485; for C4G G63U C123A it is -1.09.

Turning to C4U G10U C70G, the “polymerase ribozyme fitness (log ratio)” value is -4.35. Regarding A5C C115A, the “polymerase ribozyme fitness (log ratio)” value is -0.966. For C4G U59A G71U C82A the value was -5.53; for C4G C20U C94U A111U, -5.59. For C4U U9G A103U C124G the value was -3.47.

In the case of C4U A5G U38A C70U G120A, the “polymerase ribozyme fitness (log ratio)” value is -1.12. A5C C11G C85G: the “polymerase ribozyme fitness (log ratio)” value was -1.61. The figure for C4U C70U G77C is -1.36; for C4G U55C C72U C94G it is -3.35; for C4U U32A C89A U106C G110A it is -5.64. For C4U C11G C101U the value was -0.238; for A5C A27U C73U C123U G128A, -3.34. Regarding C4G C123A, the “polymerase ribozyme fitness (log ratio)” value is -0.461. For C4U C40U C62A the value was -2.28.

As for C4G A46U C53U C70A, the “polymerase ribozyme fitness (log ratio)” value was -2.97. For C4U U38G C49A C53U C73U the value was -2.53; for C4U C70A A121C U131A, -0.259. For C4G U9A C89A C115A G117C the value was -4.91; for C4G C8U C72A U78A U87A, -2.03; for C4U G36C G63A G69U G120A G127A, -0.365. The figure for A5C C22A G69U C80U C114A is -1.41. In the case of C4U G69U C72G C124G, the “polymerase ribozyme fitness (log ratio)” value is 0.464. The figure for C4U G44U is -1.74; for C4U A41G C62A A84C C115U it is -4.65; for C4G G110C it is -5.58. For C4U G10A C11G G69U the value was -0.117.
